Data from the DeepSol protein solubility set.

test: soluble on expression in E. coli; label from the status in PepcDB or PDB records

Sequence | soluble on expression in E. coli
MNKSHLGTADNPQEVVTAHDIGRLVDVVNVGKGFLRYVGPIHGKDGMFCGIELLEPNGKHDGTFQGVSYFIATPYHGIFAPIFRVTLDAEELPKPPPPNPSNRLSRSALPALQLRNPLTQERKPEEDVMSTSVYVSSSTKPIAIPTKQCRPPETDPMQMSMFSDMMDGSMFSNGSWSDIADSMITSNCTFTVRKGLPIDDDGDLMSVPMVQSVFNIDREALRREEQLQSSIVLGESRIGVEHLPIIEDENELETPLVETRTMPLPNDLNANFSNKNSTTTFVEPETPKVEIRENGNLDNSIETPPQQSPSGSSMVSHESDSSSKKDDTKSDKSPTKKSQKMEEKPVVKKKEEPAAPPPPPKFPVKQKAPSKHQLMMEQLKASIEAEKTKPKKEIKSRVSLLPPPAPKAPQKENKEGGEMTETPRRTITKTPLKTVNAKAKTSPTPPVERQKKERKPLYVAPPAKERVEKEKKIPSKPVVSPPTTAEKKPVVSSIPSTSSASKGPFPTSSFAGGKLQGPRKTSSSSTTTSAKKQKNPPIDEKEKLSRLQHSTHAFEATLIVMNRINEDNERKLGNISEQYEKKVSELGDLKKMLDEARKKFEEDVEQMKNSNQQVIRNHANAVESLQKTHETQIAEKNKEFERNFEEERARREAEVCAMNNRHQKVVACLDEKISEAEKQCEQLNVDKKVLQAALANDCDHRNQMLTKEISSLQTALEMKSAEMKELRQKNQNLSLQVDEIPLKELEISKWKHKSNEYKQMLDQKINGEKILVQQIEDLRRKQIHDEEEKEAMKRSFDLMQFKYENGDDPNVTSVMSAPMESRFSTPTKVQFRSRSSASGSRPISMATSNGGDQRLSTSSHHDDSMNRSTISMYTSHIRLPENHADDVIYAPDEIISSRSGSISQRLAISIENDGEPTIKSESSRIGNTSDSGIGLVM | not soluble
MTGAATAAENSATQLEFYRKALNFNVIGRYDPKIKQLLFHTPHASLYKWDFKKDEWNKLEYQGVLAIYLRDVSQNTNLLPVSPQEVDIFDSQNGSNNIQVNNGSDNSNRNSSGNGNSYKSNDSLTYNCGKTLSGKDIYNYGLIILNRINPDNFSMGIVPNSVVNKRKVFNAEEDTLNPLECMGVEVKDELVIIKNLKHEVYGIWIHTVSDRQNIYELIKYLLENEPKDSFA | soluble
AHHHHHHGSKILAIAPNISRPYLGPAAVVHNTLKGFIKINKELEREDIEITFLSINDKIKSKKLTDNINIIGTKRFPPVTFTGEIQALFVSRKLEKPDLVHSHDLYEIFPWILKKIPTIFTLHGIVWKEKMFTKSLYAKLWYYLYEKRLRAYHKKFTKFVAISP | not soluble
MGSDKIHHHHHHMKNTTLSSRKHRSLETKKKLLHSGYIVFINNGFQKTTITQIIKHAETGYGTAYVYFKNKDDLLTVLMEDVMNQFYDIAERSFSPQTKEEARNMIQNQVRAFLQLAEKERAILQVVEEAIGLSKEIRQKWDEIRERFINSITQDITYSQENGLAHPELNKETVARAWFAMNEIFLWTIVKNDKKLELEEIVHTLTEMYTTGLYK | not soluble
MSLVETPKCTCGNHGVMNKKEKIIFACSGASNVGELSNAAAVRLTKEGFGNKACTASLAIKTPSVMERVENAGEIVVIDGCPVSCAKRIADNSGVKVDQYIIITELGINKISDMDILDEDITKTVSAVKDGKSVCLDRKRENHKGSGCNCGCESKEGHHHHHH | not soluble
MSLRKIKIKEIVCIIGLLGTLTAHSQNTVWQIGNKDKSAKEFKFYKNDYRNYINDVYLYEVGRNHSADFPYFLPGPSDAWAGGISGQAVIGFSLAEAPSPTTQIQLRLLFAETHPSSPPRLEVRLNSFEKSIQTPKGTNPEYLDTKETTSKELSVTLDIPADEFRAGNNTLTIRNISGSWVAFDQIKLTSDSPLQTNNLTTKASLVSSAFSPVLVVGKKKELRQPVKIKAVNWHHKKRPVELQVGNFPPERYVLSPGINNIETSIPEVTAPCELPIILKEQGKTVSKINEKATPVKKWTVYLVQHTHTDIGYTKPQTEILSEHLRYIDYAIEYCEQTKDYTNDAKFRWTCESAWAVDEYLKNRPEEQVNKLKKYIAEGQIEVASMYFNMSEIVDENSFKTFLQPVKEFRKHGIPSALAMQNDVNGIAWCLADYLPDLGIKYLWMGEHHYKSQVPFNMPTVFQWESPSGKPILTYRADHYNTGNFWGIEQGDIQKTEPKLLHYLSELERKHYPFDAVGVQYSGYFTDNSPPSIIECKLIREWNEKYAYPKLRSATASEFMDYVTERYGDKIPAYRAAYPDWWTDGFGSAARETAASRKTHSDMTAVEGLLSMAVLKDKCLPQATHQQIEHIHESLLFYDEHTFGASESVSDPLCENSQVQWGEKSAYAWEAVKRTQMLYETSVGLLQGDLRRGKNPTLTIFNTLNWKRSEMLTVYIDFEVIPRNQFFEITDFQGHSLKVQPIRYRREGCYYAIFAEDIPPMGYKTFEIVFKQPSTDTGTITINNASIENHFYKLQLNPDKGTIQSLYDKELNCELVDSSSPWELGAFIYEKLGNRDQLAQYRLDDYNRTGLSECRIIDSSNGPIYQRILLQGKSPGTDEAFGVNLEIKLYHDTKRIELEYAIKRLPETDPSGIYVAFPFQLPEGKLAFDVQGGTVISGKNQLEGTSTDWNTVQNFVSVQNEGHHHHHH | not soluble
MAEEHHHHHHHHLEVLFQGPGRPKTHTVGSVAKVEQVKFDATSMHVKPQVAAQQKMVDDGSGEVQVWRIENLELVPVDSKWLGHFYGGDCYLLLYTYLIGEKQHYLLYVWQGSQASQDEITASAYQAVILDQKYNGEPVQIRVPMGKEPPHLMSIFKGRMVVYQGGTSRTNNLETGPSTRLFQVQGTGANNTKAFEVPARANFLNSNDVFVLKTQSCCYLWCGKGCSGDEREMAKMVADTISRTEKQVVVEGQEPANFWMALGGKAPYANTKRLQEENLVITPRLFECSNKTGRFLATEIPDFNQDDLEEDDVFLLDVWDQVFFWIGKHANEEEKKAAATTAQEYLKTHPSGRDPETPIIVVKQGHEPPTFTGWFLAWDPFKWSGIHVVPNLSPLSNN | soluble
MARQTMNPSIRYLIGVDGGGTGTRIRLHASDGTPLAMAEGGASALSQGIAKSWQAVLSTLEAAFQQAGLPAAPASACAIGLGLSGVHNRQWAGEFESQAPGFARLSLATDGYTTLLGAHGGQPGIIVALGTGSIGEALYPDGSHREAGGWGYPSGDEASGAWLGQRAAQLTQMALDGRHSHSPLTRAVLDFVGGDWQAMMAWNGRATPAQFARLAPLVLSAARVDPEADALLRQAGEDAWAIARALDPQDELPVALCGGLGQALRDWLPPGFRQRLVAPQGDSAQGALLLLQRPSTRLEHHHHHH | soluble
MSRGLLEACIEFIRETPAGDALRIVAYEFTFKRILLELKAALERGVDVRIVYHATTANEKAIADAKLPENSKGVQILFKRTRPQTPHNKFIVRLKKGKTPVSVWTGSTNFTPSGFLGQTNVGHKVTDGDIAKIYLQLWEGLKADPDDFDATQLEHHHHHH | not soluble
WYNFTKRAVKIVLIPVSWFMKAERFAKFENNISEKIDSFYEESVRMTKDWR | not soluble
MIESNHVVLWNRCLEVIKDNVPETTYNTWFAPIVPLKYEDKTLIVQIPSQFFYEILEEKFVDLLRKTLYKAIGEGTKLMYNVMVDKTSIPNQTVNLEASNRSTAVTPKSIVGGNKAPSFLKAPAVQDLDPHLNPNYNFENFIEGYSNKLSRSVAEAVAQNPAGTAFNPLFLYGASGVGKTHLANAIGTKIKELYADKRVLYVSAHLFQVQYTDSVRNNTTNDFINFYQTIDVLIIDDIQEFAGVTKTQNTFFHIFNHLHQNGKQLILTSDRAPVLLQGMEERLLTRFKWGMVAELEKPTVELRKNILRNKIHRDGLQFPPEVIDYIAENVNESVRDLEGIVIAIMARSTIFNKEIDLDLAQHIVHGVVHNETKAVTIDDILKVVCKHFDLEASAIHTKSRKREVVQARQIAMYLAKNYTDFSTSKIGKFIGNKDHATVLHACKTVKGQLEVDKSFQAEVQEIESLLKKKALEHHHHHH | soluble
MEELASLTKTADGKVLTSVTQKRNRADAATYIGKGKVEELKALVEELEADLLIFNDELSPSQLKSLATAIEVKMIDRTQLILDILAKRARTREGKLQIELAQLQYALPRLTGQGINLSRQGGGIGARGPGETKLETDRRHIRNRIHEINTQVSTVIRHRSRYRERRKKNGVLQIALVGYTNAGKSTWFNRLTSADSYEEDLLFATLDPMTRKMVLPSGYSVLLSDTVGFIQDLPTTLIAAFRSTLEEVKEADLILHLIDSSNEDYAGHEKTVLRLLEELEADDIPMLTAYNKRDQKLPDFYRPPEGITLWSVRNLRTTLQPLKKRFSAICAKNCLEHHHHHH | not soluble
